Results: PMC4454452 (The Biochemical journal, 2014)

Key:
GST-fusion CHD4 PHD2 = GST-fusion CHD4 PHD2 (Homo sapiens, UniProt Q14839); experiment: Pull-down of GST-CHD4 PHD2 by biotinylated histone peptides in the absence of 2; type: binding; details: absence of 2, Western blot
CHD4 PHD2 finger = CHD4 PHD2 finger (Homo sapiens, UniProt Q14839); details: read-out: Kd of CHD4 PHD2 for histone peptide; cited from earlier work
[1] = system: H3K4me3, H3K9me3 and H3K27me3; details: previously demonstrated; cited from earlier work

Sequence of GST-fusion CHD4 PHD2 (Q14839 449-496 limits assumed): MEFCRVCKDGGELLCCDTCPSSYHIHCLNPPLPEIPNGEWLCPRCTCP
Sequence of CHD4 PHD2 finger (Q14839 449-496 limits assumed): as above

binding of GST–CHD4 PHD2 to biotinylated histone peptide (GST-fusion CHD4 PHD2) | Compound | Kd (CHD4 PHD2 finger) [µM] | binding to trimethylated lysine peptides H3K4me3, H3K9me3 and H3K27me3 [1]
no interaction | H3K27me3: biotinylated histone H3 peptide (residues 21–44) trimethylated at Lys27 [Compound H3K27me3] | – | –
significantly weaker | H3K4me3: biotinylated histone H3 peptide (residues 1–20) trimethylated at Lys4 [Compound H3K4me3] | ~2000 | –
– | O=S(=O)(O)c1cc2c(O)c(c1)Cc1cc(S(=O)(=O)O)cc(c1O)Cc1cc(S(=O)(=O)O)cc(c1O)Cc1cc(S(=O)(=O)O)cc(c1O)C2 [Compound 1, p-sulfonatocalix[4]arene] | – | equally well
